Kd data for 1 molecule are collected here from article PMC10667097 (2023).

In the assay the target is GST RBX1–CUL1–NEDD8 (human, UniProt Q13616 1-776; P62877 5-108; Q15843 1-76, NEDD8 linked to a specific site in the WHB subdomain | C-terminus linked to the cullin (isopeptide)). Kind of assay: BLI.
Chain of GST RBX1–CUL1–NEDD8 (Q13616 whole entry, chain 1 of 3): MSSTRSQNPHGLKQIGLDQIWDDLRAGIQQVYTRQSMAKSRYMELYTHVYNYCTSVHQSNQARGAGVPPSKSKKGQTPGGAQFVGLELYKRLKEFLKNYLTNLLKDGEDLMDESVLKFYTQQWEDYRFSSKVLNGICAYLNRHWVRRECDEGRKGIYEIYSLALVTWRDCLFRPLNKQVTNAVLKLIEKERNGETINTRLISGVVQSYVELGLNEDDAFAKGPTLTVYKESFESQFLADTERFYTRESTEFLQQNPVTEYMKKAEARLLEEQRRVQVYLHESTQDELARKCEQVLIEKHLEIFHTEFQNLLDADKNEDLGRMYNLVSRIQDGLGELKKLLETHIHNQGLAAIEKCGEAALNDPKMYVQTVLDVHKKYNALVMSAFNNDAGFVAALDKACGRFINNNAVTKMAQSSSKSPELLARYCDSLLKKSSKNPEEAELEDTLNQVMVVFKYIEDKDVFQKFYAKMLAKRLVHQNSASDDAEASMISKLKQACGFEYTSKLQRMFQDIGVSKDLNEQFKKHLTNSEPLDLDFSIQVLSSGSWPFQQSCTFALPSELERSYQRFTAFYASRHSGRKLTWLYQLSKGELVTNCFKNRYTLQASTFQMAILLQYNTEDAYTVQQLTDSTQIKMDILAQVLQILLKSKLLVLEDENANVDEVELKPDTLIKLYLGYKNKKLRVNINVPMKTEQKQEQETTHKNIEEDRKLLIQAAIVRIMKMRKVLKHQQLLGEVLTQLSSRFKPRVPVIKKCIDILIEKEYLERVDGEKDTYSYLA
Chain of GST RBX1–CUL1–NEDD8 (P62877 5-108, chain 2 of 3): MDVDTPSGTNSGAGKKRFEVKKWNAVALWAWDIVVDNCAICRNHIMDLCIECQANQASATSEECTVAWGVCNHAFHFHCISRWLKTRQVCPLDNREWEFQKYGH
Chain of GST RBX1–CUL1–NEDD8 (Q15843 1-76, chain 3 of 3): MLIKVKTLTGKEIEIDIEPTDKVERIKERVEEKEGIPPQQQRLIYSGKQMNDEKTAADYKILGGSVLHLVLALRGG

B1: N8C_Fab3b (Fab, V domains shown)
VH: EVQLVESGGGLVQPGGSLRLSCAASGFNFSSSSIHWVRQAPGKGLEWVASISSSYGYTYYADSVKGRFTISADTSKNTAYLQMNSLRAEDTAVYYCARDPFGWAAHGVGLDYWGQGTLVTVSS
VL: DIQMTQSPSSLSASVGDRVTITCRASQSVSSAVAWYQQKPGKAPKLLIYSASSLYSGVPSRFSGSRSGTDFTLTISSLQPEDFATYYCQQSSYSLITFGQGTKVEIK
The term Kd denotes a measure of binding affinity in units of concentration. Higher therefore signals a looser complex. On to B1, for which the Kd was determined as 1.27 nM.
